Reference: patent publication US20180222975A1 (ELEVEN BIOTHERAPEUTICS, published 2018)
Substitutions are numbered along the chain they refer to. Blank lines part the entries; values can stand above or below the binder they belong to.

How the values were obtained:
human IL-6 [1] = target: T1, human IL-6 (human, UniProt P05231 30-212); assay: ELISA, hybridoma supernatant on plates coated with human IL-6
T1 construct: also called IL-6 (R&D Systems, cat# 206-IL/CF); biotinylated human IL-6
Protocol: Hybridoma supernatants were screened for IL-6 binding and antagonism. For the binding ELISA, Costar 9018 plates were coated with 1 μg/mL human IL-6 in PBS overnight at 4° C. Wells were blocked with PBS containing 2% BSA, washed, and then incubated with 50 μL of each hybridoma supernatant diluted 1:2 with PBS containing 2% BSA. After 60 minutes, wells were washed three times with 300 μl PBS containing 0.1% Tween-20. Anti-mouse-HRP diluted 1:3000 in PBS-BSA was then added to each well and incubated for 30 minutes. Wells were washed as above then 3,3′,5,5′-tetramethylbenzidine (TMB) substrate was added and the signal measured at 450 and 550 nm. For antagonism studies, HEK-Blue™-IL6 reporter cells (InvivoGen. San Diego, Calif.) were incubated with increasing concentrations of human IL-6 in the presence of 1:10 diluted hybridoma supernatant. After 20-24 hours, 20 μl of supernatant was mixed with 180 μl QuantiBlue™ (InvivoGen) and the absorbance measured at 655 nm.

human IL-6 [2] = target: T1, human IL-6; assay: ELISA, blocking of IL-6/IL-6Rα complex binding to gp130
[3] = target: African green monkey IL-6 (African green monkey); assay: monovalent affinity
dog IL-6 = target: T2, dog IL-6 (dog, UniProt P41323 21-207, limits assumed); assay: monovalent affinity
T2 construct: also called canine IL-6
T2 sequence (looked up): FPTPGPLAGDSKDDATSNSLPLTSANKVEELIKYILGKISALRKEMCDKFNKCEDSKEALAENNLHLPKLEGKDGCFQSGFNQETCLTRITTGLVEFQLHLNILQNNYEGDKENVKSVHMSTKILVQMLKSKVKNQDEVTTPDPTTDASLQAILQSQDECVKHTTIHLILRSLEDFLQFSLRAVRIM

mouse IL-6 = target: T3, mouse IL-6 (mouse, UniProt P08505 25-211); assay: monovalent affinity
T3 construct: also called rodent IL-6
T3 sequence (looked up): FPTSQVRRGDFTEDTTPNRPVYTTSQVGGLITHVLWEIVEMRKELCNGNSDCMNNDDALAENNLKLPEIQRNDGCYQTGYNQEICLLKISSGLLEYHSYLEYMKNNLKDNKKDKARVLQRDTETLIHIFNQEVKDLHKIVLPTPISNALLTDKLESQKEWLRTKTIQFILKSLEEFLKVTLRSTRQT

rabbit IL-6 = target: T4, rabbit IL-6 (rabbit, UniProt Q9MZR1 27-241, limits assumed); assay: monovalent affinity
T4 sequence (looked up): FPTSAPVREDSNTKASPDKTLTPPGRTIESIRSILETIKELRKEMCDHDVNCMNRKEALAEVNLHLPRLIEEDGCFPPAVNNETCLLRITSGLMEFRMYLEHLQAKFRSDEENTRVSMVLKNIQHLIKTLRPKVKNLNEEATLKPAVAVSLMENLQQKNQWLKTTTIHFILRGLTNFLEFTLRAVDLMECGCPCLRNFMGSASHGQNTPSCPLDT

rat IL-6 = target: T5, rat IL-6 (rat, UniProt P20607 25-211); assay: monovalent affinity
T5 construct: also called rodent IL-6
T5 sequence (looked up): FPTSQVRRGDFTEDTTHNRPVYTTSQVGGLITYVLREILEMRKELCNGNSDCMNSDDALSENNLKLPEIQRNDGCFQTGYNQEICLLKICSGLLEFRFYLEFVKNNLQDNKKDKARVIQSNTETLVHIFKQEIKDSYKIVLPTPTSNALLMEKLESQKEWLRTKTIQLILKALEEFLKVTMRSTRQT

human IL-6 [4] = target: T1, human IL-6; assay: affinity tested using the yeast system; original humanized h64, before affinity maturation; yeast system

binding result (human IL-6 [1]): binds
B1: murine 64 antibody (antibody, V domains shown)
VH: QVQLQQSGAELVRPGTSVKVSCKASGYAFSNYLIEWVKQRPGQGLEWIGVITPGSGTINYNEKFKGKAVLTADKSSSTVYMQLSSLTSDDSAVYFCAKSRWDPLYYYALEYWGQGTSVTVSS
VL: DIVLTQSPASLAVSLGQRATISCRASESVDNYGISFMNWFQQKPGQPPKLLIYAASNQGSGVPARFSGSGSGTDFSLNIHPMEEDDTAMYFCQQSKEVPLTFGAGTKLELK
notes: Murine monoclonal; also called hybridoma 64; m64

binding result (human IL-6 [2]): binds
B2: chimeric murine 64 antibody (antibody, V domains shown)
VH: B1 VH
VL: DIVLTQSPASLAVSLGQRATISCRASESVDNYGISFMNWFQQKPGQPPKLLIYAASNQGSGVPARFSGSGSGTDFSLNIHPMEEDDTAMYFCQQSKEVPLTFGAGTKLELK
notes: constant regions not described

Kd [3]: 0.28 nM | Kd (dog IL-6): > 1000 nM | Kd (mouse IL-6): > 1000 nM | Kd (rabbit IL-6): > 1000 nM | Kd (rat IL-6): > 1000 nM
B3: 018 Fab (Fab, V domains shown)
VH: QVQLVQSGAEVKKPGSSVKVSCKASGYALSNYLIEWVRQAPGQGLEWMGVITPGSGTINYAQKFQGRVTITADESTSTAYMELSSLRSEDTAVYYCARSRWDPLYYYALEYWGQGTTVTVSS
VL: DIVMTQSPDSLAVSLGERATINCRASESVDNYGIPFMNWYQQKPGQPPKLLIYAASNRGSGVPDRFSGSGSGTDFTLTISSLQAEDVAVYYCQQSEEVPLTFGQGTKLEIKR
notes: Fab with CK and IgG1 CH1 domains; also called Fab fragment of the h64-1,4 humanized antibody

Kd (human IL-6 [4]): 0.343 nM
B4: h64 IgG (antibody, V domains shown)
VH: B3 VH with L29F
VL: DIVMTQSPDSLAVSLGERATINCRASESVDNYGISFMNWYQQKPGQPPKLLIYAASNQGSGVPDRFSGSGSGTDFTLTISSLQAEDVAVYYCQQSKEVPLTFGQGTKLEIK
notes: also called original h64 antibody; original humanized molecule
